The results in this text go back to patent US20240123029A1.

Broadly, the Kd is the concentration at which binding is half-saturated. A word on the koff: it is a measure of how fast the partners let go of each other. Usually kon stands for a measure of how fast the partners come together. A high value points to fast association.

In this test the target is SARS-CoV-2 S protein trimer, His Tag (in house, EXPI293F cells) (SARS-CoV-2) (UniProt P0DTC2).

Recombinant human mannose binding lectin (MBL), sequence (P11226 21-248 limits assumed): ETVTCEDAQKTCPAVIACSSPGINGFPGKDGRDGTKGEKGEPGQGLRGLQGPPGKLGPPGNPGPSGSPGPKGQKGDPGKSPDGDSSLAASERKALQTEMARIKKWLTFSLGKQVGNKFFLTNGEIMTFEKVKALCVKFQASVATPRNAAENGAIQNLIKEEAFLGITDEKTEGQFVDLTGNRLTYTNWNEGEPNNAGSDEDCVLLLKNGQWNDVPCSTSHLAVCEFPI

With “Recombinant human mannose binding lectin (MBL) (from UniProt P11226 21-248)”, the Kd was determined as 0.034 µM, the koff came out at 0.00073 s⁻¹ and the kon came out at 21000 M⁻¹ s⁻¹.
